We go through one substance from US6960343B2, “Toll/interleukin-1 receptor adapter protein (TIRAP)” (Yale University School of Medicine, priority 2001, dated 2005).

One test addresses T1, TLR9 (Homo sapiens, UniProt Q9NR96).
T1 construct: TLR9 (encodes full length TLR9); expressed in transfected cells; host or cells: 293T cells
T1 sequence (Q9NR96 26-1032): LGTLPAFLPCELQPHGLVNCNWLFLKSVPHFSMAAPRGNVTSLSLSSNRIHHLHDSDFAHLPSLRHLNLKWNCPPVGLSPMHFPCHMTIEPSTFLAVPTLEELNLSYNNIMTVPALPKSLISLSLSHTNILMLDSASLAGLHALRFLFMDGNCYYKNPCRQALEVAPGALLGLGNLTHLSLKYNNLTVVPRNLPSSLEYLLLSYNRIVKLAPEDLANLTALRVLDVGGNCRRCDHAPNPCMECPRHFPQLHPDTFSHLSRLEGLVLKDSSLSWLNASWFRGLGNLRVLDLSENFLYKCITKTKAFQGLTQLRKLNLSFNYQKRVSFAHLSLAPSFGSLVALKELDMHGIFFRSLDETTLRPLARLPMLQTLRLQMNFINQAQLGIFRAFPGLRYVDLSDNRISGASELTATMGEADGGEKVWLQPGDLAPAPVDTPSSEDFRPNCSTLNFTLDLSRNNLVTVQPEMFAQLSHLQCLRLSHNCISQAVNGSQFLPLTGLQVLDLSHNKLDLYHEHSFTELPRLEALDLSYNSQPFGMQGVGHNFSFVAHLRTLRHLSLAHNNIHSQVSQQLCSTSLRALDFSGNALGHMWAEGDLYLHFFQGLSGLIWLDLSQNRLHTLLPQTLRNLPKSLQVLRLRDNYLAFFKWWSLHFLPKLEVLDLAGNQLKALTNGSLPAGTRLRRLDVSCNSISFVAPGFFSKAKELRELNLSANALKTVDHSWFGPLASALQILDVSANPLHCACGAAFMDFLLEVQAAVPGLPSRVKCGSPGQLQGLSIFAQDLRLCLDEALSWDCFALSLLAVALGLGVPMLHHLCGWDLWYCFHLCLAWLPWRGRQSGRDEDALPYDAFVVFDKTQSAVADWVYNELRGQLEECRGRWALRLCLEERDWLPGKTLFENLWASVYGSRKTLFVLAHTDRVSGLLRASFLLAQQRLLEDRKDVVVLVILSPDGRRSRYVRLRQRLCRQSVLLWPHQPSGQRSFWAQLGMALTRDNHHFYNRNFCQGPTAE
Briefly: NF-κB activation by CpG stimulation of TLR9-transfected 293T cells. The class given is cell-based. As to conditions: 100 ng, 250 ng construct, CpG 3 μM. As for the experimental part:
To determine whether TIRAP inhibits NF-κB activation induced by CpG-stimulation of TLR9-transfected cells, 293T cells were transfected with vector alone (pcDNA3), TLR9 (50 ng), with or without increasing concentrations (100 ng, 250 ng) of either TIRAP P125H or MyD88 DN. At twenty-four h post transfection, CpG oligonucleotides were added at 3 μM final concentration to TLR9-transfected samples and incubated for 14 more hours before harvesting. […] Thus, TIRAP appears to function downstream of TLR4 but not IL-1R or TLR9, and is likely to be the adapter in the MyD88-independent pathway downstream of TLR4.

For test [1], the target named is T2, CD4/TLR4 (constitutively active form of TLR4) (UniProt O00206+P06332).
T2 construct: CD4 (fusion partner of the chimera); expressed in transfected cells; host or cells: 293T cells
T2 sequence (P06332+O00206 with tags, fused parts or gaps): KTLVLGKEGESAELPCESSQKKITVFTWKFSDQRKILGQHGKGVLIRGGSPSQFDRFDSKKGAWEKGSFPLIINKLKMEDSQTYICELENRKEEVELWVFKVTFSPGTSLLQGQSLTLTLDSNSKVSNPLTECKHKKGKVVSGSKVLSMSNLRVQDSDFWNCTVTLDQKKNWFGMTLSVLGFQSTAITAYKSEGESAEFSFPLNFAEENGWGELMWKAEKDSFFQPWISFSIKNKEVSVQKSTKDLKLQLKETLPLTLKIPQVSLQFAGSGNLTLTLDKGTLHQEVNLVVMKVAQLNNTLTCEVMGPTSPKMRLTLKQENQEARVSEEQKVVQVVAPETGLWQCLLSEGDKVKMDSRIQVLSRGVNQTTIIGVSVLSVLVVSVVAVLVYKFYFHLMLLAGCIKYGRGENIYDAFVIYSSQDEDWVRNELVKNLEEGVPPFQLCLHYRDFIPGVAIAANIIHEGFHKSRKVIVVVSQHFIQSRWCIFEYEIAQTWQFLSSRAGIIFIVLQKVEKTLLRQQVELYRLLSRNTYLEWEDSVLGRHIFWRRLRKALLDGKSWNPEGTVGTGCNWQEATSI
Briefly: CD4/TLR4-mediated NF-κB activation, luciferase reporter, 293T cells. The class given is cell-based. As to conditions: 50 ng, 250 ng, 1.0 μg construct. As for the experimental part:
To determine whether TIRAP P125H functions as a dominant negative, 293T cells were transfected with 0.25 μg of vector alone (pcDNA3) or CD4/TLR4 (a vector expressing a constitutively active form of TLR4) with or without increasing concentrations (50 ng, 250 ng, 1.0 μg) of either TIRAP P125H or MyD88 DN (a vector expressing MyD88 containing a proline to histidine mutation at the same position as TIRAP P125H) and the NF-κB-dependent luciferase reporter gene.

With “TIRAP P125H: vector encoding a mutant form of TIRAP containing a proline to histidine mutation at amino acid position 125”, the “inhibition of NF-κB activation induced by CpG-stimulation of TLR9-transfected cells” value in the test with TLR9 is recorded as “did not inhibit”. Also, the “inhibition of NF-κB activation mediated by CD4/TLR4” value in test [1] is on record as “strongly inhibited”.
